*1 amine or outer side, *2 acyl side, *3 side chain or, on linkers, in order; H or OH if unused. Side-chain parts run from the residue outwards. The star is where a group is joined. C18 diacid = O=C(O)CCCCCCCCCCCCCCCCC(=O)*; γGlu = O=C(O)[C@H](CCC(=O)[*:2])N[*:1]; Isovaleryl = CC(C)CC(=O)*; AEEA = NCCOCCOCC(=O)O

The chains are these.
T1: human neuropeptide Y2 receptor (human, UniProt P49146 1-381)
T1 construct: whole, on cells; also called hNPY2 receptor; hNPY2-R
T1 sequence (looked up): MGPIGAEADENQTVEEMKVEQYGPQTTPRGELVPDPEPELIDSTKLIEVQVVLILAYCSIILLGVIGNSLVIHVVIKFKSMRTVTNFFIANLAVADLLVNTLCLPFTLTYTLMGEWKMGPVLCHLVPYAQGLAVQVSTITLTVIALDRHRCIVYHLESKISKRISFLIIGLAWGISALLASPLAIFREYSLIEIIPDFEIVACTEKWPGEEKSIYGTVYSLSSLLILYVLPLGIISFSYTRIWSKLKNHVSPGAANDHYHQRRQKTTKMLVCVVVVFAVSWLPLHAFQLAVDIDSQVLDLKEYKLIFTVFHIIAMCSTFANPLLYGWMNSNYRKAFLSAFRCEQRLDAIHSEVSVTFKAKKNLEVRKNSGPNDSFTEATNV

B1: Compound 141 (peptide)
peptide: Isovaleryl-APEK([AEEA-AEEA-γGlu-C18 diacid])PEEAASPEELQRYYVSARHYYNWLTRQRY-NH2
SMILES: CC(C)CC(=O)N[C@@H](C)C(=O)N1CCC[C@H]1C(=O)N[C@@H](CCC(=O)O)C(=O)N[C@@H](CCCCNC(=O)COCCOCCNC(=O)COCCOCCNC(=O)CC[C@H](NC(=O)CCCCCCCCCCCCCCCCC(=O)O)C(=O)O)C(=O)N1CCC[C@H]1C(=O)N[C@@H](CCC(=O)O)C(=O)N[C@@H](CCC(=O)O)C(=O)N[C@@H](C)C(=O)N[C@@H](C)C(=O)N[C@@H](CO)C(=O)N1CCC[C@H]1C(=O)N[C@@H](CCC(=O)O)C(=O)N[C@@H](CCC(=O)O)C(=O)N[C@@H](CC(C)C)C(=O)N[C@@H](CCC(N)=O)C(=O)N[C@@H](CCCNC(=N)N)C(=O)N[C@@H](Cc1ccc(O)cc1)C(=O)N[C@@H](Cc1ccc(O)cc1)C(=O)N[C@H](C(=O)N[C@@H](CO)C(=O)N[C@@H](C)C(=O)N[C@@H](CCCNC(=N)N)C(=O)N[C@@H](Cc1c[nH]cn1)C(=O)N[C@@H](Cc1ccc(O)cc1)C(=O)N[C@@H](Cc1ccc(O)cc1)C(=O)N[C@@H](CC(N)=O)C(=O)N[C@@H](Cc1c[nH]c2ccccc12)C(=O)N[C@@H](CC(C)C)C(=O)N[C@H](C(=O)N[C@@H](CCCNC(=N)N)C(=O)N[C@@H](CCC(N)=O)C(=O)N[C@@H](CCCNC(=N)N)C(=O)N[C@@H](Cc1ccc(O)cc1)C(N)=O)[C@@H](C)O)C(C)C
B2: Compound 145 (peptide)
peptide: Isovaleryl-APEK([AEEA-AEEA-γGlu-C18 diacid])PEEDSSPEEIQRYYVSLRHYYNWLTRQRY-NH2
SMILES: CC[C@H](C)[C@H](NC(=O)[C@H](CCC(=O)O)NC(=O)[C@H](CCC(=O)O)NC(=O)[C@@H]1CCCN1C(=O)[C@H](CO)NC(=O)[C@H](CO)NC(=O)[C@H](CC(=O)O)NC(=O)[C@H](CCC(=O)O)NC(=O)[C@H](CCC(=O)O)NC(=O)[C@@H]1CCCN1C(=O)[C@H](CCCCNC(=O)COCCOCCNC(=O)COCCOCCNC(=O)CC[C@H](NC(=O)CCCCCCCCCCCCCCCCC(=O)O)C(=O)O)NC(=O)[C@H](CCC(=O)O)NC(=O)[C@@H]1CCCN1C(=O)[C@H](C)NC(=O)CC(C)C)C(=O)N[C@@H](CCC(N)=O)C(=O)N[C@@H](CCCNC(=N)N)C(=O)N[C@@H](Cc1ccc(O)cc1)C(=O)N[C@@H](Cc1ccc(O)cc1)C(=O)N[C@H](C(=O)N[C@@H](CO)C(=O)N[C@@H](CC(C)C)C(=O)N[C@@H](CCCNC(=N)N)C(=O)N[C@@H](Cc1c[nH]cn1)C(=O)N[C@@H](Cc1ccc(O)cc1)C(=O)N[C@@H](Cc1ccc(O)cc1)C(=O)N[C@@H](CC(N)=O)C(=O)N[C@@H](Cc1c[nH]c2ccccc12)C(=O)N[C@@H](CC(C)C)C(=O)N[C@H](C(=O)N[C@@H](CCCNC(=N)N)C(=O)N[C@@H](CCC(N)=O)C(=O)N[C@@H](CCCNC(=N)N)C(=O)N[C@@H](Cc1ccc(O)cc1)C(N)=O)[C@@H](C)O)C(C)C
B3: Compound 147 (peptide)
peptide: Isovaleryl-APEK([AEEA-AEEA-γGlu-C18 diacid])PEEDASPEETQKYYVSLRHYYNWLTRQRY-NH2
SMILES: CC(C)CC(=O)N[C@@H](C)C(=O)N1CCC[C@H]1C(=O)N[C@@H](CCC(=O)O)C(=O)N[C@@H](CCCCNC(=O)COCCOCCNC(=O)COCCOCCNC(=O)CC[C@H](NC(=O)CCCCCCCCCCCCCCCCC(=O)O)C(=O)O)C(=O)N1CCC[C@H]1C(=O)N[C@@H](CCC(=O)O)C(=O)N[C@@H](CCC(=O)O)C(=O)N[C@@H](CC(=O)O)C(=O)N[C@@H](C)C(=O)N[C@@H](CO)C(=O)N1CCC[C@H]1C(=O)N[C@@H](CCC(=O)O)C(=O)N[C@@H](CCC(=O)O)C(=O)N[C@H](C(=O)N[C@@H](CCC(N)=O)C(=O)N[C@@H](CCCCN)C(=O)N[C@@H](Cc1ccc(O)cc1)C(=O)N[C@@H](Cc1ccc(O)cc1)C(=O)N[C@H](C(=O)N[C@@H](CO)C(=O)N[C@@H](CC(C)C)C(=O)N[C@@H](CCCNC(=N)N)C(=O)N[C@@H](Cc1c[nH]cn1)C(=O)N[C@@H](Cc1ccc(O)cc1)C(=O)N[C@@H](Cc1ccc(O)cc1)C(=O)N[C@@H](CC(N)=O)C(=O)N[C@@H](Cc1c[nH]c2ccccc12)C(=O)N[C@@H](CC(C)C)C(=O)N[C@H](C(=O)N[C@@H](CCCNC(=N)N)C(=O)N[C@@H](CCC(N)=O)C(=O)N[C@@H](CCCNC(=N)N)C(=O)N[C@@H](Cc1ccc(O)cc1)C(N)=O)[C@@H](C)O)C(C)C)[C@@H](C)O
B4: Compound 142 (peptide)
peptide: Isovaleryl-APEK([AEEA-AEEA-γGlu-C18 diacid])PPEEASPEELQRYYVSLRHYYNWLTRQRY-NH2
SMILES: CC(C)CC(=O)N[C@@H](C)C(=O)N1CCC[C@H]1C(=O)N[C@@H](CCC(=O)O)C(=O)N[C@@H](CCCCNC(=O)COCCOCCNC(=O)COCCOCCNC(=O)CC[C@H](NC(=O)CCCCCCCCCCCCCCCCC(=O)O)C(=O)O)C(=O)N1CCC[C@H]1C(=O)N1CCC[C@H]1C(=O)N[C@@H](CCC(=O)O)C(=O)N[C@@H](CCC(=O)O)C(=O)N[C@@H](C)C(=O)N[C@@H](CO)C(=O)N1CCC[C@H]1C(=O)N[C@@H](CCC(=O)O)C(=O)N[C@@H](CCC(=O)O)C(=O)N[C@@H](CC(C)C)C(=O)N[C@@H](CCC(N)=O)C(=O)N[C@@H](CCCNC(=N)N)C(=O)N[C@@H](Cc1ccc(O)cc1)C(=O)N[C@@H](Cc1ccc(O)cc1)C(=O)N[C@H](C(=O)N[C@@H](CO)C(=O)N[C@@H](CC(C)C)C(=O)N[C@@H](CCCNC(=N)N)C(=O)N[C@@H](Cc1c[nH]cn1)C(=O)N[C@@H](Cc1ccc(O)cc1)C(=O)N[C@@H](Cc1ccc(O)cc1)C(=O)N[C@@H](CC(N)=O)C(=O)N[C@@H](Cc1c[nH]c2ccccc12)C(=O)N[C@@H](CC(C)C)C(=O)N[C@H](C(=O)N[C@@H](CCCNC(=N)N)C(=O)N[C@@H](CCC(N)=O)C(=O)N[C@@H](CCCNC(=N)N)C(=O)N[C@@H](Cc1ccc(O)cc1)C(N)=O)[C@@H](C)O)C(C)C
B5: Compound 144 (peptide)
peptide: Isovaleryl-APEK([AEEA-AEEA-γGlu-C18 diacid])AEEDASPEELQQYYVSLRHYYNWLTRQRY-NH2
SMILES: CC(C)CC(=O)N[C@@H](C)C(=O)N1CCC[C@H]1C(=O)N[C@@H](CCC(=O)O)C(=O)N[C@@H](CCCCNC(=O)COCCOCCNC(=O)COCCOCCNC(=O)CC[C@H](NC(=O)CCCCCCCCCCCCCCCCC(=O)O)C(=O)O)C(=O)N[C@@H](C)C(=O)N[C@@H](CCC(=O)O)C(=O)N[C@@H](CCC(=O)O)C(=O)N[C@@H](CC(=O)O)C(=O)N[C@@H](C)C(=O)N[C@@H](CO)C(=O)N1CCC[C@H]1C(=O)N[C@@H](CCC(=O)O)C(=O)N[C@@H](CCC(=O)O)C(=O)N[C@@H](CC(C)C)C(=O)N[C@@H](CCC(N)=O)C(=O)N[C@@H](CCC(N)=O)C(=O)N[C@@H](Cc1ccc(O)cc1)C(=O)N[C@@H](Cc1ccc(O)cc1)C(=O)N[C@H](C(=O)N[C@@H](CO)C(=O)N[C@@H](CC(C)C)C(=O)N[C@@H](CCCNC(=N)N)C(=O)N[C@@H](Cc1c[nH]cn1)C(=O)N[C@@H](Cc1ccc(O)cc1)C(=O)N[C@@H](Cc1ccc(O)cc1)C(=O)N[C@@H](CC(N)=O)C(=O)N[C@@H](Cc1c[nH]c2ccccc12)C(=O)N[C@@H](CC(C)C)C(=O)N[C@H](C(=O)N[C@@H](CCCNC(=N)N)C(=O)N[C@@H](CCC(N)=O)C(=O)N[C@@H](CCCNC(=N)N)C(=O)N[C@@H](Cc1ccc(O)cc1)C(N)=O)[C@@H](C)O)C(C)C
B6: Compound 146 (peptide)
peptide: Isovaleryl-APEK([AEEA-AEEA-γGlu-C18 diacid])PEEEASPEELQRYYVSTRHYYNWLTRQRY-NH2
SMILES: CC(C)CC(=O)N[C@@H](C)C(=O)N1CCC[C@H]1C(=O)N[C@@H](CCC(=O)O)C(=O)N[C@@H](CCCCNC(=O)COCCOCCNC(=O)COCCOCCNC(=O)CC[C@H](NC(=O)CCCCCCCCCCCCCCCCC(=O)O)C(=O)O)C(=O)N1CCC[C@H]1C(=O)N[C@@H](CCC(=O)O)C(=O)N[C@@H](CCC(=O)O)C(=O)N[C@@H](CCC(=O)O)C(=O)N[C@@H](C)C(=O)N[C@@H](CO)C(=O)N1CCC[C@H]1C(=O)N[C@@H](CCC(=O)O)C(=O)N[C@@H](CCC(=O)O)C(=O)N[C@@H](CC(C)C)C(=O)N[C@@H](CCC(N)=O)C(=O)N[C@@H](CCCNC(=N)N)C(=O)N[C@@H](Cc1ccc(O)cc1)C(=O)N[C@@H](Cc1ccc(O)cc1)C(=O)N[C@H](C(=O)N[C@@H](CO)C(=O)N[C@H](C(=O)N[C@@H](CCCNC(=N)N)C(=O)N[C@@H](Cc1c[nH]cn1)C(=O)N[C@@H](Cc1ccc(O)cc1)C(=O)N[C@@H](Cc1ccc(O)cc1)C(=O)N[C@@H](CC(N)=O)C(=O)N[C@@H](Cc1c[nH]c2ccccc12)C(=O)N[C@@H](CC(C)C)C(=O)N[C@H](C(=O)N[C@@H](CCCNC(=N)N)C(=O)N[C@@H](CCC(N)=O)C(=O)N[C@@H](CCCNC(=N)N)C(=O)N[C@@H](Cc1ccc(O)cc1)C(N)=O)[C@@H](C)O)[C@@H](C)O)C(C)C

This assay addresses T1, human neuropeptide Y2 receptor. Nature of the assay: radioligand competition (125I-PYY(1-36)), hNPY2R membranes. A digest of the protocol:
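Commercial human Y2 receptor membranes (0.5 μg protein/well) were incubated with peptide for 2 h at room temperature in 50 mM HEPES, 5 mM MgCl₂, 1 mM CaCl₂, pH 7.4, with 0.2% ovalbumin. Bound radioligand was separated on PEI-soaked GF/C filters and counted by scintillation, and IC₅₀ came from nonlinear sigmoidal regression.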
On the technique in general: In a radioligand displacement assay an active substance lowers the binding of a labelled ligand.
What is called Ki is the dissociation constant of the complex between target and ligand, obtained from inhibition or displacement. A high value points to lower affinity. Molecule B1 registered an inhibition constant Ki of 3.12 nM.
Under B2 stands 1.55 nM; under B3, 1.19 nM.
To B4 belongs 1.17 nM; to B5, 8.92 nM.
To B6 belongs 5.05 nM.

For the origin of these results see patent US20210139548A1 (published 2021).
